Assay results taken from the DeepSol protein solubility set.

Assay: soluble on expression in E. coli; label from the status in PepcDB or PDB records

Question: With “MAHHHHHHMPSMDSLRTAVDNAPLLVNLLRLIRNARSPNYKDHEKGPVTFHFGGLSMRDTGSYEAAEELWRQSSWSSGALAPNAAGPFRGPLHLVVYLNHSPVEVWTLQDYREPATDHSVPRDFEQLEALNTLVRVLFAHLRCQDIYGVVLQSCVTATDDANNHFPASPNGNVSSPPHFPPPRNASLSRARTPHSPANHVSLRLFRSAEDCPTMPVHARRQYLWSSDDFVRVDVTMDRTWRHHSWVQPGTQAASPVLAAGDRERDTAVCAAGERSSPIRTASPGLRHFGSEGDTRSQSISPEAMGSLDKSSLPTPYLAPAATLALSSHLSRSPRTNLSPLMPGSRLSPAQGVSEFALPPADVSSPFDCDRSRQSRSSPPIMHSCVFASSHPAGGGGATYTAAVGAVNQVEDAVWLSNAEHVRRMGTLVCSRKQSPSASSSPVMGKKPRNSFISQKHEMGSLVPSISIGALSGIGFDRRLLSSDVDLEDLAAETASSGSSASVPNSAAMEQLVSLLGLCSKVKLQHVPSAPFGDLVLSLNLREVP” as the sequence, how does the “soluble on expression in E. coli” value read?
Answer: Its value is “not soluble”.

Question: For “MAELKLEHIKKTYDNNNTVVKDFNLHITDKEFIVFVGPSGCGKSTTLRMVAGLESITSGDFYIDGERMNDVEPKNRDIAMVFQNYALYPHMTVFENMAFGLKLRKVNKKEIEQKVNEAAEILGLTEYLGRKPKALSGGQRQRVALGRAIVRDAKVFLMDEPLSNLDAKLRVQMRTEILKLHKRLNTTTIYVTHDQTEALTMASRIVVLKDGDIMQVGTPREIYDAPNCIFVAQFIGSPAMNMLNATVEMDGLKVGTHHFKLHNKKFEKLKAAGYLDKEIILGIRAEDIHEEPIFIQTSPETQFESEVVVSELLGSEIMVHSTFQGMELISKLDSRTQVMANDKITLAFDMNKCHFFDEKTGNRIV”, which “soluble on expression in E. coli” value is on record?
Answer: The value was “not soluble”.

Question: With “MPAIFTHEGKVEGVPGNYPLTAENLFRIGLALCTLWILDKEIEEPTLSIPETNFVTLALSVGFMNAGGSVNVGKGGDIKLFLQKGEIYVLEFQPLSETDIKKLESILFGRAPIPKKTGEDIGSFKC” as the sequence, how does the “soluble on expression in E. coli” value read?
Answer: The value was “soluble”.

Question: With “MGSDKIHHHHHHMTNPISLKDPLKLPCGAVIKNRLIKSAMSDSLADGEGNATNLQARLYERWAKSGLGLSVIGEVQVDPRFPEKPGNLVLADGMDLAALRELTSRAAINGAHIWPQLSHAGGLSHLPISQPKGPSALNISQFQCAGMSIDEIYQLPDMYAKSAMLAKDVGFTGVQIHAGHGFLLSQFLSPLFNHRQDQYGGSIEARCRIIVEIIAKVRSAVGDSFPIGIKINSTDQLEGGLTQEDALAAIRILDQTSLDLIEISGGSYFPGAKSSSDSSTKGPYFAEFAATAKRLSNVPIAVTGGFKTYAQALKVIESGAVDFVGLARALVITPELAKDWLIGTATAPSFPRFKAPPQGGITAWFTMLLTAIANDSEESFELELLPALHLYEELDDARCDKWMQKFEIK” as the sequence, how does the “soluble on expression in E. coli” value read?
Answer: The value was “not soluble”.

Question: With “MASEHHEALNLYAVRVARGEGVKQDFARAASLFRRADRCGFNCEPVYDDMVNDFRDKAFGMELVSSKRAFLKALRPETAEARCTVGEAFIGQGDADSLRTGRELLTSAATLGSGKAMYLLGVLCRDGKGVAANAERAFMWFSLAASCGFAKAESERVNAEGKLDDAGRTRAMQLAARWRRQYLAPVCLEHHHHHH” as the sequence, how does the “soluble on expression in E. coli” value read?
Answer: The value was “not soluble”.

Question: With “GPGSMTRELHRLYVTEPAPPPSLYILTGAGTKAFCAGGDVIGLTTNNPPGCGREFFYWEYQVDYKASIIPAGQVCLWDGYVLGGGAGLSIGSAYRVASEKACFAMPEVAIGMFPDVGASWFLPRLSVPGLGLYMGLTGHRLRGADLVHLGLATHFVPSAKMGELEQALVSMSDAGDVEAVLDKYTTPTTQLPPCTIAHSISSLASHFDITADLTISSILDACREHAQTDPLAKAAADLMPSFSPTAMTLALELLKRGA” as the sequence, how does the “soluble on expression in E. coli” value read?
Answer: Its value is “not soluble”.

Question: With “MREAVIVAGARTPIGKAKRGSLKTVRPDDLGALVVKETLKRANYEGPIDDLIFGCAMPEAEQGLNMARNIGGLAGLSYDVPAITINRYCSSGLQSIAYGAERIMLGHSEAVLSGGAESMSLVPMMGHVVRPNSRLVEAAPEYYMGMGHTAEQVAVKYGISREEQDAFAVRSHQRAAKALAAGNFADETVSVDVTLRTVGANNKLQEETITFAQDEGVRAETTLDILGKLRPAFNVRGSVTAGNSSQMSDGAASVLLMDREKAVSDGMKPLAKFRSFAVAGVPPEVMGIGPIAAIPKALKLAGLELSDIGLFELNEAFASQSIQVIRELGLDEEKVNVNGGAIALGHPLGCTGAKLTLSLIHEMKRRNEQFGIVTMCIGGGMGAAGVFELL” as the sequence, how does the “soluble on expression in E. coli” value read?
Answer: Its value is “not soluble”.

Question: With “MGHHHHHHSHMTSELDIFVGNTTLIDEDVYRLWLDGYSVTDAVALRVRSGILEQTGATAAVLQSDTMDHYRTFHMLERLLHAPPKLLHQLIFQIPPSRQALLIERYYAFDEAFVREVLGKKLSKGTKKDLDDISTKTGITLKSCRRQFDNFKRVFKVVEEMRGSLVDNIQQHFLLSDRLARDYAAIVFFANNRFETGKKKLQYLSFGDFAFCAELMIQNWTLGAVGEAPTDP” as the sequence, how does the “soluble on expression in E. coli” value read?
Answer: Its value is “not soluble”.

Question: For “HSEEAAYYAVEIGRMFDLGDEKLEKLYWAGLLHDIGKIYVPQVVLNKTSKLDEREFELIKIHPVRGYELVKEIEGFEDVAIWIRHHHERWDGKGYPDGLKGEEIPFEARVLCVADSYQAM”, which “soluble on expression in E. coli” value is on record?
Answer: The value was “soluble”.

Question: For “MMNADCKTAFGAIEESLLWSAEQRAASLAATLACRPDEGPVWIFGYGSLMWNPALEFTESCTGTLVGWHRAFCLRLTAGRGTAHQPGRMLALKEGGRTTGVAYRLPEETLEQELTLLWKREMITGCYLPTWCQLDLDDGRTVNAIVFIMDPRHPEYESDTRAQVIAPLIAAASGPLGTNAQYLFSLEQELIKLGMQDDGLNDLLVSVKKLLAENYPDGVLRPGFALEHHHHHH”, which “soluble on expression in E. coli” value is on record?
Answer: Its value is “soluble”.

Question: With “MGSDKIHHHHHHAQDRAQQASELLDRLIAGQGDSVYVHLDDNIRKMLSVEMLNGLFKQLEQQAGKYQSHGEWNTEPINGMTVYYCDVKFERLPLRFLTAFNPDGKVNTIRFVPVPPEKTTPPTTSVQDKIKETDIQVCTGNFKLPGTLTLPKNGKDLPVVILVHGSGASDRDETVGANKPFRDLAYGLAERGIAVIRYDKRTKVYGADSAPAGKEITFDEESVDDALSAIKLARSIPTINPERIYILGHSLGGTLAPRIAQRSDKVPAGIILLAGAARPLEDLFISQVKFLASALPSTKDIEKEIAELQKQVDNVKRLGTDTFDITTPLPMNLSQAYWMLANQYKPLEVVRKLTLPILVLQGERDYQVTMQDFELWKSALAKHPNAIFKSYPRLNHLFQEGEGKSTPLEYSRPSSIPSYVTDDIAAFINRPKPGN” as the sequence, how does the “soluble on expression in E. coli” value read?
Answer: The value was “not soluble”.

Question: Which “soluble on expression in E. coli” value does the source give for “MGSDKIHHHHHHMLQYRSSKMISMEIVEFKWLKFLDRYRSMAKHNLSNSGMPEPDLRSMGIDTRYESYLNEMVDLDAALRDTVARRYGVDRDNVIITNGGTEAIFLASAFISASSEVIAVPSPEYEPIFIVPESLDRRVRRVKLEKIGQAEKNSESLALSLPNNPTGKYGDIADLVRDAGRTYRYVYIDETFHDFTDDRGSSLYDGSKNLIVSNTMTKFYGLSSLRVGWIVSDKENIDAIRRIKDLTTINNARFSLFLARQAIEKWDRFRERTHSIVRKNADIARKELSDFGFYSDEYEGAPFMFVGDGRFDSEMMASKAISGYGVLVAPGSYFGLDGYLRVCLTALDAREDIAAFREFAEKELGK” here?
Answer: Its value is “not soluble”.

Question: With “MLVVSIAGSPSVRSRSGVLLERARDWLSRRGVEVASHQVLDFPAEDLLRARLDSPPVLALAEQIGRADGLLVATPVYKASFSGALKVLLDLLPERALEHKVVLPFATGGSSAHMLAVDYALKPVLAALKAQEVLHGVFAVDKQIAYATESDPARLEPVLEQRLENALETFHLALSRRPQPIDPQLLNERLVNARWSI” as the sequence, how does the “soluble on expression in E. coli” value read?
Answer: The value was “soluble”.

Question: Which “soluble on expression in E. coli” value does the source give for “MIQPVAVIGAGPFGLSTAAHLRARGIPVRVFGDPMVSWRDHMPAGMLLKSTPAASTIDAPQRGHRLVDYCDAAGIARLVTDEDIIPVETFIGYGRWFQEQLVPGLEQVRVVSVDRKAGGGFELKLDSGELFTARAVVVATGLSGLAHLPAELAGAAVDGPTPTGPVSHSSQHHDLSRFAGKELVVVGAGQSALETAALAAEAGAHVRVVSRGRGRVSFGAPPWKQPRLRPESPFGRAWSLWALSYYPHPYRYLPAEARHYLVRRVLGPLGAWWLRDRFEGKVEVREVASVARAHASEGSPVLTLRTHGGRTQELPADHVIAATGYRVDIAAMDFLGHELRTELVVSRGTPKLGAGFRSSVPGLYFTGLPAAASYGPVMRFVCGTEFASPRLAKHLAGAHGLEHHHHHH” here?
Answer: Its value is “not soluble”.
